± gives the uncertainty stated by the source.
Test: self-splicing fitness, log relative to wild type (ln ratio); higher = more splicing; Tetrahymena group I intron in knt gene, E. coli kanamycin selection, DiMSum; sequences stand for … in CUCUCU…GGAGGGAAAAGUUAUCAGGCAUGCACCUGGUAGCUAGUCUUUAAACCAAUAGAUUGCAUCGGUUUAAAAGGCAAGACCGUCAAAUUGCGGGAAAGGGGUCAACAGCCGUUCAGUACCAAGUCUCAGGGGAAACUUUGAGAUGGCCUUGCAAAGGGUAUGGUAAUAAGCUGACGGACAUGGUCCUAACCACGCAGCCAAGUCCUAAGUCAACAGAUCUUCUGUUGAUAUGGAUGCAGUUCACAGACUAAAUGUCGGUCGGGGAAGAUGUAUUCUUCUCAUAAGAUAUAGUCGGACCUCUCCUUAAUGGGAGCUAGCGGAUGAAGUGAUGCAACACUGGAGCCGCUGGGAACUAAUUUGUAUGCGAAAGUAUAUUGAUUAGUUUUGGAGUACUCGUGGUCG
Outline: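 Fitness was computed with DiMSum as the error-weighted combination of replicate fold changes, kanamycin versus none, each normalised to wild type. The library randomised all eight intron nucleotides of the P1ex region, with the intron placed in the knt kanamycin-resistance gene on pET-22b(+) in E. coli BL21(DE3). Six replicate transformations were grown overnight at 37°C or 30°C on LB agar with or without 25 μg/mL kanamycin, plus 100 μg/mL carbenicillin, 50 μM IPTG and 0.2% rhamnose. Pooled colonies were amplicon-sequenced on an Illumina HiSeq 2500.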

Sequence	self-splicing fitness (ln) (30 °C)	self-splicing fitness (ln) (37 °C)
AUCAAGCAAUAUUACGAUCU	-1.37 ± 0.1	-0.575 ± 0.12
AGGGAGCAAUAUUACGACCA	-1.14 ± 0.18	-0.171 ± 0.19
GCAUAGCAAUAUUACGGGCC	–	-1.97 ± 0.27
UUGAAGCAAUAUUACGUCAA	-0.54 ± 0.083	0.078 ± 0.1
GCUGAGCAAUAUUACGCUCU	-1.12 ± 0.17	-0.769 ± 0.2
AACGAGCAAUAUUACGAGAA	-1.87 ± 0.22	-1.56 ± 0.33
GAGUAGCAAUAUUACGGACA	-1.44 ± 0.087	-0.816 ± 0.082
CCGCAGCAAUAUUACGAUUU	-3.28 ± 0.14	-2.22 ± 0.15
UCAAAGCAAUAUUACGAGGC	–	-2.69 ± 0.3
UACGAGCAAUAUUACGGACG	-2.32 ± 0.12	-1.24 ± 0.15
CGGAAGCAAUAUUACGCGCC	–	-0.393 ± 0.27
ACAUAGCAAUAUUACGUCCG	-1.62 ± 0.11	-1.2 ± 0.14
UGCUAGCAAUAUUACGGAGU	-4.11 ± 0.3	-2.34 ± 0.24
CAACAGCAAUAUUACGACUA	-1.35 ± 0.1	-0.653 ± 0.092
CUCUAGCAAUAUUACGCAGG	-3.35 ± 0.26	-3.04 ± 0.47
CCUAAGCAAUAUUACGAGUC	-3.77 ± 0.22	–
CAAAAGCAAUAUUACGCCGG	-0.401 ± 0.098	-0.104 ± 0.13
AAAGAGCAAUAUUACGUACC	-3.04 ± 0.19	-2.03 ± 0.28
GCCCAGCAAUAUUACGAAGG	-3.32 ± 0.14	-2.42 ± 0.21
AAGAAGCAAUAUUACGACUC	0.456 ± 0.13	0.487 ± 0.18
CGAGAGCAAUAUUACGUUCU	-3.16 ± 0.13	-2.83 ± 0.17
AGCGAGCAAUAUUACGGGCA	-0.63 ± 0.061	-0.562 ± 0.075
UGGGAGCAAUAUUACGUUCA	-0.406 ± 0.091	-0.266 ± 0.12
AUCGAGCAAUAUUACGGUCG	-2.73 ± 0.38	–
CGGCAGCAAUAUUACGGAGU	-3.46 ± 0.27	-2.33 ± 0.2
UGAAAGCAAUAUUACGUAGA	-1.88 ± 0.097	-1.56 ± 0.15

Sequence	self-splicing fitness (ln) (30 °C)	self-splicing fitness (ln) (37 °C)
AUUAAGCAAUAUUACGCCAG	-2.09 ± 0.15	-1.51 ± 0.22
UUUAAGCAAUAUUACGGAUA	-1.12 ± 0.18	-1.13 ± 0.18
UAAGAGCAAUAUUACGGCAG	-3.03 ± 0.18	-1.38 ± 0.17
GGGUAGCAAUAUUACGGGUA	-1.55 ± 0.28	-1.1 ± 0.21
CGCGAGCAAUAUUACGAAUU	-3.16 ± 0.27	-2.03 ± 0.21
GGGAAGCAAUAUUACGAGAA	-2.16 ± 0.48	-1.78 ± 0.36
UUCGAGCAAUAUUACGGCUG	-2.58 ± 0.23	-1.81 ± 0.22
GAUCAGCAAUAUUACGGCAG	-3.4 ± 0.33	-2.34 ± 0.27
UGAGAGCAAUAUUACGUUGG	–	-3 ± 0.27
GUGUAGCAAUAUUACGCCAG	–	-1.12 ± 0.5
CGCCAGCAAUAUUACGCAAU	-4.2 ± 0.21	-2.63 ± 0.22
ACACAGCAAUAUUACGUCCA	-1.09 ± 0.089	-0.474 ± 0.096
UAUAAGCAAUAUUACGGAUA	-0.466 ± 0.13	-0.208 ± 0.13
AUAAAGCAAUAUUACGAGAG	-2.29 ± 0.18	-1.03 ± 0.15
AGCUAGCAAUAUUACGCCGA	-1.4 ± 0.4	–
ACCAAGCAAUAUUACGUUGA	-2.83 ± 0.12	-2.01 ± 0.11
CAGCAGCAAUAUUACGUGAG	-0.675 ± 0.06	-0.267 ± 0.086
UCAGAGCAAUAUUACGUGGA	-2.49 ± 0.17	-0.107 ± 0.12
AGUUAGCAAUAUUACGAUGG	-2.45 ± 0.17	-1.51 ± 0.19
CAUGAGCAAUAUUACGAUCA	-2.99 ± 0.15	-2.24 ± 0.16
AGCCAGCAAUAUUACGUCUG	-4.62 ± 0.25	-1.94 ± 0.17
AUCUAGCAAUAUUACGUUAG	-3.26 ± 0.19	-2.67 ± 0.24
UCCUAGCAAUAUUACGCGAG	-3.06 ± 0.27	-3.22 ± 0.37
UGGGAGCAAUAUUACGCCUA	-2.63 ± 0.44	-1.75 ± 0.32
UGCGAGCAAUAUUACGAAGU	-3.37 ± 0.3	-0.334 ± 0.29
